The target of assay [1] is P113 entire ectodomain, AVEXIS bait and prey forms (P. falciparum (3D7 strain)). The experiment in a line: SPR.
Assay [2] concerns the target P113 entire ectodomain, AVEXIS bait or prey and biotinylated SPR ligand (P. falciparum (3D7 strain)). Briefly: SPR.
The target of assay [3] is purified P113 entire ectodomain (P113 EE) (P. falciparum (3D7 strain)). The experiment in a line: native gel or EMSA; fractions of the gel filtration peak resolved by native PAGE (Bis-Tris, 150 V) against denaturing SDS-PAGE.
A further assay concerns the target Basigin (Homo sapiens) (UniProt P35613). The conditions noted are these: cited from earlier work.
For assay [4], the target named is Synthetic RH5Nt peptide (F1-K116 with an additional C-terminal cysteine) (P. falciparum). Briefly: SPR.
For assay [5], the target named is RH5Nt (F1-K116), biotinylated SPR ligand (P. falciparum (3D7 strain)). The experiment in a line: SPR.
Assay [6] deals with Basigin ectodomain, AVEXIS bait or prey and biotinylated SPR ligand (human) (UniProt P35613). Briefly: SPR.
For assay [7], the target named is P113 Y1-K197, biotinylated SPR ligand (P. falciparum (3D7 strain)). Briefly: SPR.
Assay [8] has as its target P113 Y1-N653, biotinylated SPR ligand (P. falciparum (3D7 strain)). Briefly: SPR.

pKd: −log10 of the molar value.

With “purified monomeric full-length RH5 (RH5FL) (from UniProt Q8IFM5 25-526) (natural protein)”, the pKd in assay [1] is 6.52.
In assay [2], “RH5Nt (N-terminal region of RH5, F1-K116), purified monomeric SPR analyte (domain or fragment)” gave a pKd of 5.57, a koff of 0.793 s⁻¹ and a kon of 300000 M⁻¹ s⁻¹.
As for “purified P113 entire ectodomain (P113 EE) (natural protein)”, the stoichiometry N in assay [3] was found to be 4.
Turning to RH5 (from UniProt Q8IFM5), in the assay with Basigin (Homo sapiens), the pKd is 6.00.
As for “purified monomeric RH5Nt (F1-K116) (domain or fragment)”, the pKd in [1] is 5.52.
Consider “P113 Y1-N653, purified SPR analyte (domain or fragment)”, for which, in [4], the pKd is 5.24, the koff is 1.24 s⁻¹ and the kon was 216000 M⁻¹ s⁻¹. In assay [5], the pKd was 5.30, the koff was 1.54 s⁻¹ and the kon came out at 304000 M⁻¹ s⁻¹.
In assay [6], “RH5Ct (major processed form of RH5), purified monomeric SPR analyte (domain or fragment)” showed a pKd of 6.05, a koff of 0.293 s⁻¹ and a kon of 342000 M⁻¹ s⁻¹.
With “RH5FL, purified monomeric SPR analyte (from UniProt Q8IFM5 25-526) (natural protein)”, the pKd in assay [6] was 5.89; in assay [7], 5.96; in assay [8] it was 6.30.

The record behind these values is paper PMC5309799.
